Data published in PMC9465349, “G protein–coupled receptor kinase phosphorylation of distal C-tail sites specifies βarrestin1-mediated signaling by chemokine receptor CXCR4” (The Journal of Biological Chemistry, 2022).

B1: βarrestin1-GFP10 (natural protein, UniProt P49407 1-418, looked up)
chain: MGDKGTRVFKKASPNGKLTVYLGKRDFVDHIDLVDPVDGVVLVDPEYLKERRVYVTLTCAFRYGREDLDVLGLTFRKDLFVANVQSFPPAPEDKKPLTRLQERLIKKLGEHAYPFTFEIPPNLPCSVTLQPGPEDTGKACGVDYEVKAFCAENLEEKIHKRNSVRLVIRKVQYAPERPGPQPTAETTRQFLMSDKPLHLEASLDKEIYYHGEPISVNVHVTNNTNKTVKKIKISVRQYADICLFNTAQYKCPVAMEEADDTVAPSSTFCKVYTLTPFLANNREKRGLALDGKLKHEDTNLASSTLLREGANREILGIIVSYKVKVKLVVSRGGLLGDLASSDVAVELPFTLMHPKPKEEPPHREVPENETPVDTNLIELDTNDDDIVFEDFARQRLKGMKDDKEEEEDGTGSPQLNNR
notes: βarrestin1 (βarr1); plasmid a gift from Michel Bouvier; Gift plasmid; also called βarr1-GFP; βarr1-GFP^10; source: HEK293, transiently transfected (PEI), in live cells
B2: STAM1 (signal-transducing adaptor molecule 1) tagged at the N terminus with Rluc8 (natural protein, UniProt Q92783 1-540, looked up)
chain: MPLFATNPFDQDVEKATSEMNTAEDWGLILDICDKVGQSRTGPKDCLRSIMRRVNHKDPHVAMQALTLLGACVSNCGKIFHLEVCSRDFASEVSNVLNKGHPKVCEKLKALMVEWTDEFKNDPQLSLISAMIKNLKEQGVTFPAIGSQAAEQAKASPALVAKDPGTVANKKEEEDLAKAIELSLKEQRQQSTTLSTLYPSTSSLLTNHQHEGRKVRAIYDFEAAEDNELTFKAGEIITVLDDSDPNWWKGETHQGIGLFPSNFVTADLTAEPEMIKTEKKTVQFSDDVQVETIEPEPEPAFIDEDKMDQLLQMLQSTDPSDDQPDLPELLHLEAMCHQMGPLIDEKLEDIDRKHSELSELNVKVMEALSLYTKLMNEDPMYSMYAKLQNQPYYMQSSGVSGSQVYAGPPPSGAYLVAGNAQMSHLQSYSLPPEQLSSLSQAVVPPSANPALPSQQTQAAYPNTMVSSVQGNTYPSQAPVYSPPPAATAAAATADVTLYQNAGPNMPQVPNYNLTSSTLPQPGGSQQPPQPQQPYSQKALL
notes: STAM1 (signal-transducing adaptor molecule 1); the plasmid holds 'the STAM1-coding region' in pcDNA3; New plasmid; Rluc8 fragment from pTRE-Tight-Rluc8 (Addgene 79844); also called Rluc8-STAM1; RLuc8-STAM1; source: HEK293, transiently transfected (PEI), in live cells; not shown: Rluc8, N-terminal, kept

Tests used:
Conditions in all cases: partners not purified
CXCR4-Rluc3 [1] = molecular target: T1, CXCR4-Rluc3 (UniProt P61073 1-352); assay: FRET or BRET; as a13 for CXCR4-Rluc3 and βarr1-GFP, but in the presence of 30 μM GRK2/3 inhibitor compound 101
T1 construct: chemokine receptor CXCR4; plasmid a gift from Nikolaus Heveker; Gift plasmid; also called Rluc3-tagged CXCR4; source: HEK293, transiently transfected (PEI), in live cells
T1 sequence (P61073 whole entry): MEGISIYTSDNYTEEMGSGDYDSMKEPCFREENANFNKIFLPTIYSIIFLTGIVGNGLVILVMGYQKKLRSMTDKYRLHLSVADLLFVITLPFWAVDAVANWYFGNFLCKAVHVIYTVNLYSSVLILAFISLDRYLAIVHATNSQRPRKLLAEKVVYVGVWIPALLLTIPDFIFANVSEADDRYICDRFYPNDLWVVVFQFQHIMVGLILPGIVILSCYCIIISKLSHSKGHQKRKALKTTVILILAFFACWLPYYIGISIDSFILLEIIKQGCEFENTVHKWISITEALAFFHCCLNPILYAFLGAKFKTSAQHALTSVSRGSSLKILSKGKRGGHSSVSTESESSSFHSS

[2] = molecular target: T2, NTS1-Rluc8 (neurotensin receptor 1) (UniProt P30989 1-418); assay: FRET or BRET; BRET2 in live HEK293 cells coexpressing a GPCR tagged with Rluc (CXCR4-Rluc3, or GPCR-Rluc8; donor) and βarr1-GFP10 (acceptor); increasing concentrations of the receptor's agonist at 37 °C; vehicle or 1 μM Gö6983 (little effect, CXCR4)
T2 construct: neurotensin receptor 1 (NTS1); 'the NTS1-coding region' amplified by PCR from the NTS1-Tango plasmid; New plasmid; source: HEK293, transiently transfected (PEI), in live cells
T2 sequence (P30989 whole entry): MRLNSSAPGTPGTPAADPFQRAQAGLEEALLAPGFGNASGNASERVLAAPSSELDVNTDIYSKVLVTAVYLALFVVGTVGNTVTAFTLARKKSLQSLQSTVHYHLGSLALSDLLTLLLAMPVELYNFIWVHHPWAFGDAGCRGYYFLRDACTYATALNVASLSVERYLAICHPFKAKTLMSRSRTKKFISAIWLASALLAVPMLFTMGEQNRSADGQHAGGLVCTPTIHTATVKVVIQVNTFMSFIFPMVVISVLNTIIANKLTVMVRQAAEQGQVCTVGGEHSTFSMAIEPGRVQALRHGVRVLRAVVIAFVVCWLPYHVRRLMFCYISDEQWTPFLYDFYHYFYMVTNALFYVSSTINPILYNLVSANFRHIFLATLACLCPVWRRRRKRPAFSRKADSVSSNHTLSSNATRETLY

CXCR4-Rluc3 [3] = molecular target: T1, CXCR4-Rluc3; assay: as above
βarrestin1-GFP10 [4] = molecular target: B1; assay: FRET or BRET; BRET2 in live HEK293 cells coexpressing FLAG-NTS1, Rluc8-STAM1 and βarr1-GFP; increasing concentrations of neurotensin, 10 min, 37 °C
βarrestin1-GFP10 [5] = molecular target: B1; assay: FRET or BRET; BRET2 in live HEK293 cells coexpressing FLAG-AT1a, Rluc8-STAM1 and βarr1-GFP; increasing concentrations of angiotensin II, 10 min, 37 °C

| EC50 of the agonist CXCL12 for the BRET response (with GRK2/3 inhibitor compound 101) (CXCR4-Rluc3 [1]) [nM] | potency (EC50) of the agonist neurotensin for the BRET response [2] [nM] | EC50 of the agonist CXCL12 for the BRET response (vehicle) (CXCR4-Rluc3 [3]) [nM] | potency (EC50) of the agonist neurotensin for the BRET response (βarrestin1-GFP10 [4]) [nM] | potency (EC50) of the agonist angiotensin II for the BRET response (βarrestin1-GFP10 [5]) [nM] | Binder |
| --- | --- | --- | --- | --- | --- |
| 7.79 | 0.13 | 0.3 | – | – | B1 |
| – | – | – | 0.22 | 70 | B2 |
